Results published in US6156546 (Washington State University Research Foundation, dated 2000).

Key:
[1] = molecular target: Human plasma fibronectin (human) (UniProt P02751); assay: soluble 125I-Fn bound to untreated whole C. jejuni, gamma counting
Human plasma fibronectin = Human plasma fibronectin (human, UniProt P02751-8, 125I-labelled (Iodogen method) or biotinylated (sulfo-NHS-biotin) in the ligand blots and the soluble binding assay; unlabelled when immobilised on coverslips); assay: ligand blot with 125I-labeled Fn

Molecule | ng Fn bound [1] [ng] | binding result (Human plasma fibronectin)
C. jejuni whole bacteria (isolate not stated) in the soluble 125I-Fn assay (cells without a defined receptor) | 380 | –
CadF protein of Campylobacter coli M275 (other) ADNNVKFEITPTLNHNYFEGNLDMDNRYAPGIRLGYHFDDFWLDQLELGLEHYSDVKYTNSTLTTDITRTYLSAIKGIDLGEKFYFYGLAGGGYEDFSKGAFDNKSGGFGHYGAGLKFRLSDSLALRLETRDQISFHDADHSWVSTLGISFGFGAKREKVVAEQVKEVAIEPRVAVPTQSQCPAEPREGAMLDENGCEKTISFEGHFGFDKVDINPAFEEKIKEIAQLLDENARYDTILEGHTDNIGSRAYNQKLSERRAESVAKELEKFGVDKDRIQTVGYGQDKPRSRNETKEGRADNRRVDAKFILR | – | binds
